B1: Dystrobrevin alpha, residues 235 to 294; numbered along this chain, Q9Y4J8 (parent)
chain: ENVFHPVECSYCHSESMMGFRYRCQQCHNYQLCQDCFWRGHAGGSHSNQHQMKEYTSWKS

Variants of: B1
Assay: abundance fitness (aPCA) (normalised: wild type 0, dead -1); higher = more abundant; growth selection in yeast, the domain comes from the species named
Conditions: Homo sapiens

Abundance fitness of substitutions, site by site:
Y30: P -0.638; Q -0.559; R -0.301; S -0.478; T -0.426; V -0.206; W -0.458
Q31: A -0.085; C -0.151; D -0.012; E 0.112; F 0.119; I -0.053; K -0.318; L -0.153; N -0.202; P -0.536; R -0.318; S -0.007; T 0.083; V 0.098; W 0.11; Y -0.034
L32: A -0.656; C 0.038; D -0.356; E -0.395; G -0.511; K -0.538; M -0.793; Q -0.455; R -0.647; S -0.308; T 0.053; V -0.102; W -0.751; Y -0.38
C33: A -0.495; D -0.894; E -0.541; F -0.625; G -0.78; H -0.659; I -0.884; K -0.983; L -0.874; M -0.823; N -0.592; Q -0.609; R -0.675; S -0.658; T -0.944; V -0.836; W -0.811; Y -0.954
Q34: A -0.053; D -0.267; E 0.044; F -0.394; G -0.027; H -0.156; K 0.127; L -0.423; M -0.302; N -0.146; P -0.163; R -0.047; S -0.087; T -0.19; V -0.169; W -0.606; Y -0.147
D35: A -0.093; C -0.113; F 0.197; G -0.235; H 0.001; I -0.113; M -0.022; N 0.069; P 0.025; Q -0.204; R -0.089; S -0.033; V -0.084; W -0.33; Y 0.011
C36: A -0.881; D -0.624; F -0.994; G -0.596; I -0.733; K -0.192; L -0.817; M -0.723; P -0.565; Q -0.723; R -0.695; S -0.992; V -0.873; W -0.94; Y -0.734
F37: A -0.043; C -0.473; D -0.488; E -0.101; G -0.348; H -0.092; I -0.087; L -0.232; M 0.081; N -0.401; P -0.62; Q -0.003; R -0.098; S -0.278; T -0.439; V -0.045; W -0.051; Y -0.052
W38: A 0.305; C 0.215; D 0.288; E 0.287; F 0.099; H 0.014; I 0.318; K 0.191; L 0.167; M 0.37; N 0.308; P -0.146; Q 0.228; R 0.364; S 0.343; T 0.349; V 0.13; Y 0.214
R39: A 0.142; C -0.071; D -0.083; E 0.074; F -0.34; G 0.011; H 0.092; I -0.308; K 0.228; L -0.08; M -0.072; N 0.086; P -0.495; Q 0.116; S 0.062; T -0.107; V -0.202; W -0.282; Y -0.099
G40: A -0.391; C -0.227; D -0.166; E -0.284; F -0.193; I -0.27; K -0.045; L -0.384; M -0.404; N -0.138
